Literature values in paper PMC8239185.

How the values were obtained:
Glu286 = Glu286 (UniProt position 286, FFGHPEVYIIV); experiment: kinetics; details: enzyme during turnover
Glu212 = Glu212 (UniProt position 213, RTPDHEDTFFR); details: ground state of the reaction centre (quinones oxidised)

Substance	pKa (Glu286)	pKa (Glu212)
Cytochrome c oxidase (aa3, A-type), subunit I (Rhodobacter sphaeroides (Cereibacter sphaeroides))	≈10	–
Photosynthetic reaction centre (bRC), L subunit (Rhodobacter sphaeroides (Cereibacter sphaeroides))	–	≈10
